Laboratory results taken from the supplement of paper PMC10065799, “High-throughput profiling of sequence recognition by tyrosine kinases and SH2 domains using bacterial peptide display” (eLife, 2023).

Tests used:
AncSZ = experiment: phosphorylation enrichment, bacterial display (enrichment ratio); higher = better substrate or ligand; peptides without Tyr show the background
EPHB1 = EPHB1 (UniProt P54762); experiment: as above
EPHB2 = EPHB2 (UniProt P29323); experiment: as above
FGFR1 = FGFR1 (UniProt P11362); experiment: as above
Sequence of FGFR1 (P11362 whole entry, looked up): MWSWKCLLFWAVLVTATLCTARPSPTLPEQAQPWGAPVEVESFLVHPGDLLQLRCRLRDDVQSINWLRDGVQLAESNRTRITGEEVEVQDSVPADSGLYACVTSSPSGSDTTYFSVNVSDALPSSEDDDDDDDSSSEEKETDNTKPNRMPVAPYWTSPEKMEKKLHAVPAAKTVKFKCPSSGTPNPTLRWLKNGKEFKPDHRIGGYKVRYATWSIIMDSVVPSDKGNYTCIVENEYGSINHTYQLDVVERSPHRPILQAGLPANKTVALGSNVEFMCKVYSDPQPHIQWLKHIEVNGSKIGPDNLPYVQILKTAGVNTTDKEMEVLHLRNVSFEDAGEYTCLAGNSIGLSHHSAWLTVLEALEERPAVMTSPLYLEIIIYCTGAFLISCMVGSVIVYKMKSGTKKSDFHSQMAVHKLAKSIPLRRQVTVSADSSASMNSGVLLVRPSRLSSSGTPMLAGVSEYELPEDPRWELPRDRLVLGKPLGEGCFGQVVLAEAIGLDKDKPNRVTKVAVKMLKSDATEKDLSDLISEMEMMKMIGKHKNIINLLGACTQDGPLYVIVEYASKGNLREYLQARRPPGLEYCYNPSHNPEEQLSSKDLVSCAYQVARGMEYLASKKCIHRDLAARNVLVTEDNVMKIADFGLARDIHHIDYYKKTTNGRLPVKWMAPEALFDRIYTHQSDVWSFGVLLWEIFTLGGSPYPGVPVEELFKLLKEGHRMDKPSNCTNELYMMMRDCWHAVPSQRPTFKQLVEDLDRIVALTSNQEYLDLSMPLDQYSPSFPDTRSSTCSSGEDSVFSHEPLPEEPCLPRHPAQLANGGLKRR

FGFR3 = FGFR3 (UniProt P22607); experiment: as above
Sequence of FGFR3 (P22607 whole entry, looked up): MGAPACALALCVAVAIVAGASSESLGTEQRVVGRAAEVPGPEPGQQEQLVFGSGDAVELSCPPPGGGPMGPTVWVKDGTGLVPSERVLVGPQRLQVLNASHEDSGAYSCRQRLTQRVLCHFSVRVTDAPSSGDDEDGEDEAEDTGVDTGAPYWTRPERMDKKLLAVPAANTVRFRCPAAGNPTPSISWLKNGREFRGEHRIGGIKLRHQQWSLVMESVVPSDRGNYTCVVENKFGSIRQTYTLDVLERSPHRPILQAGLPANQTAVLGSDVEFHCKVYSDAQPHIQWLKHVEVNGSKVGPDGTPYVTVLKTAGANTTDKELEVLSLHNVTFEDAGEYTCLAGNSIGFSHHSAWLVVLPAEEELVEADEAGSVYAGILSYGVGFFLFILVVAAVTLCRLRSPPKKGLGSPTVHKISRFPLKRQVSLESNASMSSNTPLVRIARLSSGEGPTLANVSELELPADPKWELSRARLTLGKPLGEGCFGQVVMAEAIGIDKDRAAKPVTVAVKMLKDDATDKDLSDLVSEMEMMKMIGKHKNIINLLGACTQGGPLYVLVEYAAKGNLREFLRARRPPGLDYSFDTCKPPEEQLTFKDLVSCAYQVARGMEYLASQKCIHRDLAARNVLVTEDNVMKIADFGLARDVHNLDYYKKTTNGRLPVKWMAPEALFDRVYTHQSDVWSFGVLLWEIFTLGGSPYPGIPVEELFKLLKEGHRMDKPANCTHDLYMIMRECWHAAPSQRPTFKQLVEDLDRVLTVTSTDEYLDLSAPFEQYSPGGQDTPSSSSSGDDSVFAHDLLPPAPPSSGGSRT

Fer (mouse) = experiment: as above
Fes = Fes (UniProt P07332); experiment: as above
Fyn = Fyn (UniProt P06241); experiment: as above
Sequence of Fyn (P06241 whole entry, looked up): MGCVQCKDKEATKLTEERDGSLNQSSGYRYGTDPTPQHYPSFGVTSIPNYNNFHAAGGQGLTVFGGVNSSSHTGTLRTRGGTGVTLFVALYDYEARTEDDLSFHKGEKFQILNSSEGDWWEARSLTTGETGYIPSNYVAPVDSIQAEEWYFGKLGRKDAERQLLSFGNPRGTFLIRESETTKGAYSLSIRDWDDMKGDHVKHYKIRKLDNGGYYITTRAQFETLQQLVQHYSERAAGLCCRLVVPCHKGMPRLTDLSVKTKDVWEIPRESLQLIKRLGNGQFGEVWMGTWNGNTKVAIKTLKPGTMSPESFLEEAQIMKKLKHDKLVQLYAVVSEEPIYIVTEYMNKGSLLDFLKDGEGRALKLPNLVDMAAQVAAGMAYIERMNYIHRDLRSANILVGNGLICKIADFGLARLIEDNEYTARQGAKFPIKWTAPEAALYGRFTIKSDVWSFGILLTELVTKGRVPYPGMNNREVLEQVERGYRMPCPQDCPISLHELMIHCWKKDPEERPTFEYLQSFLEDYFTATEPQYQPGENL

Hck = Hck (UniProt P08631); experiment: as above
Sequence of Hck (P08631 whole entry, looked up): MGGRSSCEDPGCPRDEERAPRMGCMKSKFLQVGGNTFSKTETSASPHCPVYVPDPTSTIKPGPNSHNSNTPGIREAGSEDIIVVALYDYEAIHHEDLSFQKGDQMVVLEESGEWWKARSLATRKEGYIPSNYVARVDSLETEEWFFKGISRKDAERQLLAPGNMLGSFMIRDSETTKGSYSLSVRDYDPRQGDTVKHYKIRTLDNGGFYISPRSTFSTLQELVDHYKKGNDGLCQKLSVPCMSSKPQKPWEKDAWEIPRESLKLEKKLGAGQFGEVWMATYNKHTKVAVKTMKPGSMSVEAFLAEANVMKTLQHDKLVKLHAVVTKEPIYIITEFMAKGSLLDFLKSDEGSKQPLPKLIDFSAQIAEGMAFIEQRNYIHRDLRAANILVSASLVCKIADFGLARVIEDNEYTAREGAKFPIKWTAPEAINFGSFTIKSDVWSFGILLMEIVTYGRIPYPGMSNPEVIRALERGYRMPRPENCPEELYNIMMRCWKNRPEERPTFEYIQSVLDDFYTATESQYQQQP

Jak2 = Jak2 (UniProt O60674); experiment: as above
MERTK = MERTK (UniProt Q12866); experiment: as above
Sequence of MERTK (Q12866 whole entry, looked up): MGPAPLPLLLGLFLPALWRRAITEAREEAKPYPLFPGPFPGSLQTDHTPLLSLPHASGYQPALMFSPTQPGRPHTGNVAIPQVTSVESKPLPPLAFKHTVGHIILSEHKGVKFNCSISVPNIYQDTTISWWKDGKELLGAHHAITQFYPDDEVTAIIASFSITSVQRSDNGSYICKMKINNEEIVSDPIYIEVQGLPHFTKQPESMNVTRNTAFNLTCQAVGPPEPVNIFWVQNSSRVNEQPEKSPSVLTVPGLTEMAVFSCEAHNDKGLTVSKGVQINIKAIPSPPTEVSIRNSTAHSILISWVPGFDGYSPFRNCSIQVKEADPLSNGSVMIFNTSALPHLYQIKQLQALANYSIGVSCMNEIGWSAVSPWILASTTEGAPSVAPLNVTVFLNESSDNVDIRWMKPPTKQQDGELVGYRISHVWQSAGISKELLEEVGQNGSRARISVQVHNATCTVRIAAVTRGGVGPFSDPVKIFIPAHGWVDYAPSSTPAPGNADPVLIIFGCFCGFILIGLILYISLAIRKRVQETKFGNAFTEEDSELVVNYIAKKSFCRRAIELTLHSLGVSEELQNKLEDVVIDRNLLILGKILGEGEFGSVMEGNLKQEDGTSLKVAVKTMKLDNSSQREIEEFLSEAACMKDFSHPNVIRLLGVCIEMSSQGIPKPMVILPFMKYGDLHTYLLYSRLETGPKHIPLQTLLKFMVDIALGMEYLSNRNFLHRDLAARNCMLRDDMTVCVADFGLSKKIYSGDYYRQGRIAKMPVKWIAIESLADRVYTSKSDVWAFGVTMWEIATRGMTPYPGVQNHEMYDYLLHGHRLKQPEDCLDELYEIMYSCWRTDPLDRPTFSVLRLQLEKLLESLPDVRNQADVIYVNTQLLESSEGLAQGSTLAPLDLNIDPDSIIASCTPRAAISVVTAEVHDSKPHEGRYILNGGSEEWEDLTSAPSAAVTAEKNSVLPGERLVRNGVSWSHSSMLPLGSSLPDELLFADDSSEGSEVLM

c-Abl (mouse) = experiment: as above
c-Src = experiment: as above
Grb2 SH2 = Grb2 SH2 (UniProt P62993); experiment: SH2 binding enrichment of the phosphorylated peptide, bacterial display (enrichment ratio); higher = better substrate or ligand; peptides without Tyr show the background
Sequence of Grb2 SH2 (P62993 whole entry, looked up): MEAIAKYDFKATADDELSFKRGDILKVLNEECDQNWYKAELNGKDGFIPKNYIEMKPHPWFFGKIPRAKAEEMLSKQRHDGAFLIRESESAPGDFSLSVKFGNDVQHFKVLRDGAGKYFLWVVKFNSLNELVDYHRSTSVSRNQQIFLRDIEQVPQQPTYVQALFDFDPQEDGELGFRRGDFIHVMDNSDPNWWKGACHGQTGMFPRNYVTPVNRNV

SHP2-C SH2 = experiment: as above
c-Src SH2 = experiment: as above
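Wherever SH2 binding enrichment of the phosphorylated peptide, bacterial display is given: peptide library displayed on the E. coli surface as eCPX fusions, selected cells deep-sequenced, score is each peptide's frequency after selection divided by its frequency in the input.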
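Wherever phosphorylation enrichment, bacterial display is given: 11-residue human phosphosite peptides and single-mutation variants displayed on the E. coli surface, counted by deep sequencing, each peptide's frequency after selection divided by its frequency in the unselected input library; frequency after pTyr selection over input frequency; kinase dosed for 20-30% of maximal phosphorylation in three min.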

Sequence of EPHB2 (P29323 whole entry, looked up): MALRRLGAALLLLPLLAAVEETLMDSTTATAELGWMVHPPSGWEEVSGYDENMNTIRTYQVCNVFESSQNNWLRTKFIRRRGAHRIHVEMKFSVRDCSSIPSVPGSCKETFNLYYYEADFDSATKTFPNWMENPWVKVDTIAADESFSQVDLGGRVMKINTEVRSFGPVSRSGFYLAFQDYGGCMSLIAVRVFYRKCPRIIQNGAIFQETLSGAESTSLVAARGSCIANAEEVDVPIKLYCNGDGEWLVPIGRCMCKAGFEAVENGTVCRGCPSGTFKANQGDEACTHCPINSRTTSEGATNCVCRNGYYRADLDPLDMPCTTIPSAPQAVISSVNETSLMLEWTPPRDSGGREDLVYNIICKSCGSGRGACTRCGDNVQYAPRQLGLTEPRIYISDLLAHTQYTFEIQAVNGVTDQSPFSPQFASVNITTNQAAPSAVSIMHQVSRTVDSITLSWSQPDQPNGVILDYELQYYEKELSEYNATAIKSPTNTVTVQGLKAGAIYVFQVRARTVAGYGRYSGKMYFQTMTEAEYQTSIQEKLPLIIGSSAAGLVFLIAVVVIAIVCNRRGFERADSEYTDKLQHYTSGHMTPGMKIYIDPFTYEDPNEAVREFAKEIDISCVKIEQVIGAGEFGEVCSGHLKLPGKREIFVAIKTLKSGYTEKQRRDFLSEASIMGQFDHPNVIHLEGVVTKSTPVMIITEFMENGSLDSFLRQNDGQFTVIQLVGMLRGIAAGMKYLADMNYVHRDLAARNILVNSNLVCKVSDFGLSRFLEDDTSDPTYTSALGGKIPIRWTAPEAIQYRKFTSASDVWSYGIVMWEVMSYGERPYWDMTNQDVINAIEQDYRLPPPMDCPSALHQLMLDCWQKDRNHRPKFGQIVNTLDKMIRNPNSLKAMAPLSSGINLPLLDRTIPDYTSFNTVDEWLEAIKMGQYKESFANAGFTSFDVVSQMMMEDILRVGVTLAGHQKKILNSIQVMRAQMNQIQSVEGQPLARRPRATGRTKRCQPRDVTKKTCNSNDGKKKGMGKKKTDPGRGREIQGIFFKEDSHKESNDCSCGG

Row | Sequence | phosphorylation enrichment (AncSZ) | phosphorylation enrichment (EPHB1) | phosphorylation enrichment (EPHB2) | phosphorylation enrichment (FGFR1) | phosphorylation enrichment (FGFR3) | phosphorylation enrichment (Fer (mouse)) | phosphorylation enrichment (Fes) | phosphorylation enrichment (Fyn) | phosphorylation enrichment (Hck) | phosphorylation enrichment (Jak2) | phosphorylation enrichment (MERTK) | phosphorylation enrichment (c-Abl (mouse)) | phosphorylation enrichment (c-Src) | SH2 binding enrichment (Grb2 SH2) | SH2 binding enrichment (SHP2-C SH2) | SH2 binding enrichment (c-Src SH2)
1 | RRIHSHRGHLW [VHL_Y112_Y112H] | 0.918 | 0.773 | 0.732 | 0.558 | 0.701 | 0.689 | 1.01 | 0.604 | 0.737 | 0.659 | 0.621 | 0.909 | 0.828 | 0.906 | 0.262 | 0.378
2 | ADEDIYGVLPA [LYNtide_2014] | 1.49 | 0.705 | 1.36 | 0.606 | 0.982 | 2.99 | 1.36 | 4.82 | 3.51 | 1.28 | 2.76 | 2.19 | 2.97 | 1.02 | 0.794 | 0.401
3 | PSAELYSNALP [PDGFRB_Y716] | 1.55 | 2.63 | 1.91 | 1.79 | 1.73 | 7.66 | 1.79 | 1.66 | 3.02 | 0.849 | 7.96 | 0.96 | 1.38 | 1.19 | 0.734 | 0.629
4 | ARAGEYGAEAL [HBA1_Y25_H21R] | 0.866 | 0.465 | 0.469 | 0.473 | 0.524 | 0.383 | 0.829 | 0.655 | 0.432 | 0.697 | 0.379 | 0.571 | 0.396 | 0.923 | 0.667 | 0.487
5 | PMQLPYDSTWE [PDGFRB_Y589] | 0.975 | 0.533 | 0.399 | 0.438 | 0.646 | 0.575 | 1.69 | 0.561 | 0.554 | 1.24 | 0.573 | 1.12 | 1.1 | 0.673 | 1.47 | 1.17
6 | LRLSSYSTTIR [CYP7B1_Y365] | 1.41 | 0.674 | 0.708 | 0.655 | 0.756 | 0.524 | 1.1 | 0.687 | 0.615 | 0.936 | 0.686 | 0.676 | 0.658 | 1.1 | 0.823 | 0.796
7 | PFSEPYADFGG [APBA1_Y187_YF] | 1 | 0.543 | 0.488 | 1 | 0.957 | 0.719 | 1.29 | 1.15 | 0.786 | 0.991 | 0.76 | 1.38 | 3.39 | 0.862 | 0.659 | 0.868
8 | SEKVVYRRFTE [NCF1_Y41] | 0.663 | 0.39 | 0.423 | 0.406 | 0.472 | 0.387 | 0.671 | 0.432 | 0.414 | 0.61 | 0.438 | 0.527 | 0.438 | 0.752 | 0.44 | 0.42
9 | FSMGCYEISLE [HMGCL_Y198_G203E_YF] | 2.14 | 0.913 | 0.751 | 0.541 | 0.973 | 1.14 | 1.53 | 0.898 | 0.758 | 1.31 | 0.623 | 1.2 | 1.51 | 0.879 | 0.7 | 0.347
10 | AKLKDYYIFNK [CCDC42_Y149] | 0.596 | 0.449 | 0.594 | 3.4 | 2.16 | 0.457 | 0.635 | 0.515 | 0.503 | 0.605 | 0.704 | 0.65 | 0.808 | 1 | 0.711 | 0.823
11 | NFFDLYGGEKF [PTPN11_Y66_D61N_YF] | 0.91 | 0.518 | 0.634 | 0.419 | 0.61 | 0.553 | 1.02 | 1.79 | 3.54 | 0.826 | 0.437 | 0.581 | 2.73 | 1.02 | 0.827 | 0.641
12 | GVLKEYGVKVL [CPS1_Y529] | 0.52 | 0.369 | 0.322 | 0.384 | 0.569 | 0.362 | 0.642 | 0.378 | 0.431 | 0.391 | 0.488 | 0.334 | 0.424 | 0.863 | 0.688 | 0.408
13 | HQNGMYRLHQD [SGSH_Y89_G90R] | 0.814 | 0.741 | 0.745 | 0.521 | 0.661 | 0.66 | 0.971 | 0.42 | 0.461 | 0.933 | 0.414 | 0.549 | 0.5 | 0.869 | 0.776 | 0.504
14 | DHLASYLDKVR [KRT10_Y160_R156H] | 0.585 | 0.369 | 0.477 | 0.46 | 0.469 | 0.363 | 0.677 | 0.406 | 0.439 | 0.639 | 0.453 | 0.473 | 0.457 | 0.776 | 0.714 | 0.44
15 | EVESPYEVHDY [GIGYF2_Y1168] | 1.66 | 0.785 | 0.84 | 0.489 | 0.792 | 9.16 | 1.1 | 4.95 | 1.13 | 1.03 | 0.567 | 0.762 | 4.25 | 0.86 | 0.599 | 0.485
16 | GEDEPYAEPYA [APBA1_Y183_S184A] | 1.59 | 0.685 | 0.694 | 0.608 | 0.799 | 0.525 | 1.53 | 0.609 | 0.544 | 1.33 | 0.636 | 0.915 | 0.639 | 1.1 | 0.885 | 0.821
17 | ALRASYTPSPV [ESS2_Y418_A423V] | 0.847 | 0.366 | 0.53 | 0.32 | 0.502 | 0.424 | 0.723 | 0.39 | 0.458 | 0.909 | 0.435 | 0.945 | 0.678 | 0.67 | 0.557 | 0.418

Row | Sequence | phosphorylation enrichment (AncSZ) | phosphorylation enrichment (EPHB1) | phosphorylation enrichment (EPHB2) | phosphorylation enrichment (FGFR1) | phosphorylation enrichment (FGFR3) | phosphorylation enrichment (Fer (mouse)) | phosphorylation enrichment (Fes) | phosphorylation enrichment (Fyn) | phosphorylation enrichment (Hck) | phosphorylation enrichment (Jak2) | phosphorylation enrichment (MERTK) | phosphorylation enrichment (c-Abl (mouse)) | phosphorylation enrichment (c-Src) | SH2 binding enrichment (Grb2 SH2) | SH2 binding enrichment (SHP2-C SH2) | SH2 binding enrichment (c-Src SH2)
18 | ETVHRYVELLD [AP1S3_Y87_I83T] | 0.905 | 0.538 | 0.654 | 0.591 | 0.746 | 0.435 | 0.997 | 0.478 | 0.52 | 0.752 | 0.415 | 0.613 | 0.461 | 0.929 | 1.94 | 24.5
19 | APSHAYHGGVL [ANO1_Y981] | 0.52 | 0.371 | 0.336 | 0.626 | 0.427 | 0.502 | 0.494 | 0.382 | 0.5 | 0.496 | 0.381 | 0.505 | 0.475 | 0.881 | 0.501 | 0.629
20 | SVNCTYSPALN [TP53_Y126_T123N] | 0.957 | 0.654 | 0.613 | 0.484 | 0.725 | 0.521 | 1.01 | 0.735 | 0.851 | 0.77 | 0.478 | 0.622 | 0.849 | 0.722 | 0.544 | 0.381
21 | RHFTGCRIELQ [INSR_Y818_Y818C] | 0.779 | 0.545 | 0.778 | 0.488 | 0.672 | 0.503 | 1.49 | 0.403 | 0.613 | 0.884 | 0.421 | 0.665 | 0.508 | 0.835 | 0.771 | 0.714
22 | ATVRPYRPFII [LRP5_Y1528_A1525V_YF] | 0.653 | 0.438 | 0.336 | 0.418 | 0.459 | 0.406 | 0.61 | 0.397 | 0.462 | 0.644 | 0.395 | 0.505 | 0.493 | 0.953 | 0.79 | 0.616
23 | LVTAWYIGFLC [KCNQ2_Y237] | 2.1 | 1.12 | 0.95 | 0.872 | 1.3 | 0.873 | 2.62 | 0.748 | 1.11 | 2.67 | 0.629 | 2.12 | 1.15 | 1.16 | 0.712 | 0.622
24 | PQGVRYTYTID [DCX_Y103_I104T] | 1.05 | 0.702 | 0.495 | 0.57 | 0.784 | 0.499 | 1.36 | 0.587 | 0.601 | 1.05 | 0.338 | 0.605 | 0.634 | 0.779 | 3.15 | 1.55
25 | MEKEKYVSYIS [JMJD1C_Y596] | 0.795 | 0.571 | 0.509 | 0.401 | 0.672 | 0.397 | 1.11 | 0.471 | 0.442 | 0.921 | 0.413 | 0.629 | 0.5 | 0.612 | 0.815 | 0.432
26 | IPPRRYFRSGV [STAMBP_Y36] | 0.778 | 0.531 | 0.523 | 0.414 | 0.61 | 0.548 | 0.676 | 0.639 | 0.573 | 0.714 | 0.608 | 0.717 | 0.61 | 0.644 | 0.526 | 0.471
27 | PVQAAYQKVVD [HBB_Y131_A136D] | 0.831 | 0.493 | 1.06 | 0.655 | 0.515 | 0.384 | 1.01 | 0.621 | 0.931 | 0.577 | 0.38 | 0.432 | 0.458 | 1.12 | 0.697 | 0.719
28 | KASVDYIRKLQ [MITF_Y360] | 0.765 | 0.393 | 0.409 | 0.364 | 0.482 | 0.351 | 0.651 | 0.336 | 0.351 | 0.589 | 0.32 | 0.503 | 0.345 | 0.838 | 0.899 | 0.454
29 | YRIGPYQPSVP [MATR3_Y784_N787S] | 0.55 | 0.421 | 0.434 | 0.749 | 0.759 | 0.429 | 0.708 | 0.514 | 0.481 | 0.524 | 0.425 | 0.62 | 0.449 | 0.829 | 0.996 | 0.668
30 | FLTQHHDAKPQ [ANG_Y38_Y38H] | 0.497 | 0.33 | 0.381 | 0.447 | 0.451 | 0.468 | 0.742 | 0.279 | 0.353 | 0.464 | 0.44 | 0.552 | 0.396 | 0.876 | 0.669 | 0.604
31 | IVLEKYKLLPE [DHFR_Y157_D153V] | 0.843 | 0.53 | 0.638 | 0.596 | 0.752 | 0.45 | 1.07 | 0.453 | 0.458 | 0.809 | 0.386 | 0.676 | 0.346 | 0.922 | 0.907 | 0.575
32 | VLSIDYYFPPQ [AR_Y552_P549S] | 6.35 | 3.13 | 3.2 | 13.3 | 10.8 | 0.605 | 1.09 | 1.03 | 0.881 | 6.81 | 3.5 | 1.24 | 2.17 | 1.47 | 1.55 | 1.34
33 | PFSSPYENSLI [EPOR_Y489_N487S_YF] | 1.4 | 1.24 | 1.15 | 0.604 | 1.3 | 3.51 | 1.42 | 1.34 | 1.21 | 0.941 | 0.891 | 0.705 | 0.674 | 14.1 | 1.03 | 6.34
